Substitutions are numbered along the chain they refer to. Names may count otherwise.
B1: native Renilla reniformis luciferase (RLuc) (Renilla reniformis) (protein)
chain: MTSKVYDPEQRKRMITGPQWWARCKQMNVLDSFINYYDSEKHAENAVIFLHGNAASSYLWRHVVPHIEPVARCIIPDLIGMGKSGKSGNGSYRLLDHYKYLTAWFELLNLPKKIIFVGHDWGACLAFHYSYEHQDKIKAIVHAESVVDVIESWDEWPDIEEDIALIKSEEGEKMVLENNFFVETMLPSKIMRKLEPEEFAAYLEPFKEKGEVRRPTLSWPREIPLVKGGKPDVVQIVRNYNAYLRASDDLPKMFIESDPGFFSNAIVEGAKKFPNTEFVKVKGLHFSQEDAPDEMGKYIKSFVERVLKNEQ
notes: host and tag of RLuc not clearly stated
B2: LuxSit: de novo designed DTZ luciferase, 117 residues, SEQ ID NO:1 (protein)
chain: MSEEQIRQFLRRFYEALDSGDADTAASLFHPGVTIHLWDGVTFTSREEFREWFERLFSTRKDAQREIKSLEVRGDTVEVHVQLHATHNGQKHTVDATHHWHFRGNRVTEMRVHINPTG
modifications: VARIANT 1 optionally absent; VARIANT 118 optionally absent
B3: LuxSit-f: LuxSit variant A96M/M110V, SEQ ID NO:3, strong initial flash emission (protein)
chain: B2 chain with A96M, M110V
modifications: VARIANT 1 optionally absent; VARIANT 118 optionally absent
B4: M110V: LuxSit mutant M110V (protein)
chain: B2 chain with M110V
modifications: VARIANT 1 optionally absent; VARIANT 118 optionally absent
B5: A96M: LuxSit mutant A96M (protein)
chain: B2 chain with A96M
modifications: VARIANT 1 optionally absent; VARIANT 118 optionally absent

Key:
[1] = substrate: Oc1ccc(Cc2nc3c(Cc4ccccc4)nc(-c4ccc(O)cc4)cn3c2O)cc1; experiment: Michaelis-Menten kinetics of native Renilla luciferase (RLuc) with CTZ; type: biochemical, Renilla reniformis; details: other: substrate CTZ; Table 3; pH 8.0
Excerpt: (§1) Synthetic genes and oligonucleotides were purchased from Integrated DNA Technologies or GenScript. The synthetic gene was inserted between NdeI and XhoI sites of a pET29b+ vector, containing an N-terminal hexahistidine tag followed by a TEV protease cleavage site and a C-terminal stop codon. Restriction endonucleases, Q5 PCR polymerase, and T4 ligase were purchased from NEB. Plasmid DNA, PCR products, or digested fragments were purified by Qiagen DNA purification kits. DNA sequences were analyzed by Genewiz. Coelenterazine (CTZ) was purchased from Gold Biotechnology. Diphenylterazine (DTZ), pyridyl diphenylterazine (8pyDTZ), and Furimazine (FRZ) were purchased from MedChemExpress. […] DNA and protein concentrations were determined by a NanoDrop™ small-volume 8 channel UV/vis spectrometer. […] All luminescence measurements were acquired by a Biotek Synergy Neo2T™ Multi-Mode Plate Reader. To convert relative arbitrary unit (RLU) to the number of photons, Neo2 plate reader was calibrated by determining the chemiluminescence of luminol with known quantum yield in the presence of horseradish peroxidase and hydrogen peroxide in K2CO3 aqueous solution as previously described^45. SDS PAGE and luminescence images were captured by a Bio-Rad ChemiDocT™ XRS+. Images were analyzed using the Fiji image analysis software.
For Michaelis-Menten kinetics measurements, 25 μL of serial diluted DTZ substrate in Tris pH 8.0 buffer was added into the wells of a white 96-well half-area microplate containing 25 μL of purified luciferases (final enzyme concentration: 100 nM; substrate concentration: 0.78 to 50 μM). […] The luminescence signals were monitored until the reactions were completed (0.1 s integration and measurements were taken every 5 s for a total of 40 min). […] In vitro luminescence activity measurements of LuxSit-i expressing HEK293T or HeLa cells were done similarly as 15,000 intact cells or lysates were used in the assay instead of purified luciferases. […]

[2] = for Relative emission intensity: integrated luminescence intensity over the first 20 min, normalized to LuxSit, 25 μM DTZ in Tris pH 8.0 buffer; for increase of activity over LuxSit: DTZ
Method: Each colony was expressed individually in each well of 96-well plates (1 mL culture) and purified accordingly (see Methods). (a) Individual luminescence activity of each selected mutant was plotted and compared to the parent LuxSit. Luminescence activities were measured in the presence of 25 μM DTZ. Luminescence activity (RLU) was shown as the integrated signal over the first 15 min. Statistical analysis of the amino acid frequency versus the luciferase activity at residue (b) 60, (c) 96, and (d) 110.
The cells were plated on 150 mm×15 mm LB agar plates supplemented with carbenicillin and L-arabinose, incubated at 37° C. overnight, and left at 4° C. for another 24 h. As described in the screening of luciferase libraries, colony-based screening by spraying DTZ solution was used to identify active colonies. […] The plates were shaken at 37 C overnight (˜16-18 h) on 96-well plate shakers at 1,100 rpm. Cells were pelleted by centrifugation at 4,000 g for 15 min in a tabletop centrifuge. Media was discarded and the cell pellets were resuspended in 0.2 mL BugBuster HT Protein Extraction buffer. The plates were transferred back to 96-well plate shakers and incubated at 1,100 rpm for an additional 30 min. Cellular debris was pelleted again by centrifugation at 4,000 g for 15 min, soluble lysates were transferred to a new semi-deep 96-well plate, and incubated with 10 μL of magnetic Ni-NTA beads for 30 min to allow binding. The magnetic extractor was used to first transfer the beads from the binding plates to wash plates with 200 μL IMAC wash buffer in each well, and then transfer the beads to elusion plates containing 30 μL IMAC elution buffer in each well. The concentrations of all proteins in each well were determined by the Bradford assay directly. The elution solution in each well was used to make a 25 μL protein solution at indicated concentration and mixed with 25 μL of 50 μM DTZ PBS solution. The luminescence signals were acquired over a course of 15 min while the actual point mutation was identified by sequencing.

[3] = Circular dichroism spectra and thermal denaturation; type: physicochemical; details: 220 nm, 25° C. to 95° C.
Excerpt: as §1
Purified protein samples were prepared at 15 μM in pH 7.4 10 mM phosphate buffer. Spectra from 190 nm to 260 nm were recorded at 25° C., 50° C., 75° C., 95° C., and after cooling back to 25° C. Thermal denaturation was monitored at 220 nm from 25° C. to 95° C. […]

[4] = Luciferase activities of re-designed sequences based on LuxSit-i (Table 1); type: biochemical; details: LuxSit-f and re-designed sequences based on LuxSit-i (Table 1)
Excerpt: In another embodiment, the proteins comprise an amino acid sequence at least 30%, 35%, 40%, 45%, 50%, 55%, 60%, 65%, 70%, 75%, 80%, 85%, 90%, 91%, 92%, 93%, 94%, 95%, 96%, 97%, 98%, 99%, or 100% identical to the amino acid selected from the group consisting of SEQ ID NO:1-181, as shown in Table 1. SEQ ID NO:5-181 in Table 1 are re-designed amino acid sequences based on LuxSit-i (SEQ ID NO:2), with their luciferase activities shown.

[5] = Luminescent quantum yield of LuxSit variants; type: biochemical; details: consuming 125 pmol of DTZ in PBS with 50 nM recombinant luciferase; estimated relative to reported quantum yield of RLuc; mean ± s.d., n = 3
Method: FIG. 10. Additional characterization of LuxSit variants. (a) Normalized emission kinetics of 15,000 intact HeLa cells expressing LuxSit-i, 100 nM purified LuxSit-i, or 100 nM purified LuxSit-f in the presence of 50 μM DTZ. The more extended emission kinetics in HeLa cells is likely due to the diffusion rate of DTZ across cell membranes. […] (c) Luminescent quantum yield was estimated from the integrated luminescence signal until completely converting 125 pmol substrates to photons in the presence of 50 nM corresponding luciferase (see Methods). All data points were plotted as the average of triplicate measurements.
For Michaelis-Menten kinetics measurements, 25 μL of serial diluted DTZ substrate in Tris pH 8.0 buffer was added into the wells of a white 96-well half-area microplate containing 25 μL of purified luciferases (final enzyme concentration: 100 nM; substrate concentration: 0.78 to 50 μM). […] The luminescence signals were monitored until the reactions were completed (0.1 s integration and measurements were taken every 5 s for a total of 40 min). […] In vitro luminescence activity measurements of LuxSit-i expressing HEK293T or HeLa cells were done similarly as 15,000 intact cells or lysates were used in the assay instead of purified luciferases. […] Data were shown as the total luminescence signal over the first 10 min. […]

[6] = Michaelis-Menten kinetics measurements of purified luciferases; type: biochemical; details: DTZ; mean (95% CI), n = 3
Method: For Michaelis-Menten kinetics measurements, 25 μL of serial diluted DTZ substrate in Tris pH 8.0 buffer was added into the wells of a white 96-well half-area microplate containing 25 μL of purified luciferases (final enzyme concentration: 100 nM; substrate concentration: 0.78 to 50 μM). Measurements were taken every 1 min (0.1 s integration and 10 s shaking between each interval) for a total of 20 min. Initial velocities were estimated as the average of the light intensities from the first three data points to fit the Michaelis-Menten equation. All relative arbitrary unit (RLU) per second values were converted to photon/s by the luminol-H2O2—HRP calibration method^45. Following the equation: Imax=LQY×kcat×[E], Imax is the maximal photon flux (photon s^−1), [E] is the total enzyme concentration, and V ax is the maximum photon flux per molecule (photon s^−1 molecule^−1) from the fitting of the Michaelis-Menten equation. To determine the luminescent quantum yields, 25 μL of 5 μM individual substrate in PBS was injected into 25 μL PBS containing 100 nM corresponding luciferase. DTZ was used for all LuxSit variants while CTZ was used as the substrate of native RLuc. The luminescence signals were monitored until the reactions were completed (0.1 s integration and measurements were taken every 5 s for a total of 40 min). […] To record emission spectra, 25 μL of 50 μM DTZ in PBS were injected into 25 μL of 200 nM pure luciferases and the emission spectra were collected with 0.1 s integration and 2 nm increments from 300 to 700 num. In vitro luminescence activity measurements of LuxSit-i expressing HEK293T or HeLa cells were done similarly as 15,000 intact cells or lysates were used in the assay instead of purified luciferases. To evaluate the substrate specificity, 25 μL of 50 μM substrate analogs in PBS were added to 25 μL of 200 nM indicated luciferases, and the signals were recorded over 20 min. Data were shown as the total luminescence signal over the first 10 min. We normalized the data by setting the highest emission substrate at 100%.

Molecule	Relative emission intensity [2]	thermal stability (CD melting) [3]	Activity [4]	increase of activity over LuxSit [2] [fold]	also measured
B1	–	–	–	–	Km [1]: 1.5 µM; kcat [1]: 4.9 s⁻¹; kcat/Km [1]: 3.3e+06 M⁻¹ s⁻¹
B2	1	not fully unfolded at 95 °C	75.3	–	–
B3	60.9	thermostable	534.5	–	LQY (luminescent quantum yield) [5]: 10.9 ± 1.5%
B4	19.3	–	–	19	Km [6]: 30.3 µM; Vmax [6]: 7.1(6.2-8.4) ×10^−2 photon s^−1 molecule^−1
B5	16.4	–	–	16	–

Reference: patent publication US20250075190A1, “DE NOVO DESIGNED LUCIFERASE” (UNIVERSITY OF WASHINGTON, priority 2022, published 2025)
